Article PMC6804851, “Mechanism of floral scent production in Osmanthus fragrans and the production and regulation of its key floral constituents, β-ionone and linalool”

How the values were obtained:
[1] = biological target: T1, OfERF61 (Osmanthus fragrans, UniProt A0A5P8PES4 1-303); test: EMSA; 0, 2, 4, 8 ug ERF61; complex increases with protein; LightShift Chemiluminescent EMSA Kit (Thermo Fisher), manufacturer's instructions; buffer, salt, pH and temperature not stated; details: protein: recombinant; tags: pET-30a vector tags (not given); label: 3' biotin (sense strand); blunt
T1 sequence (A0A5P8PES4 entry or part of it): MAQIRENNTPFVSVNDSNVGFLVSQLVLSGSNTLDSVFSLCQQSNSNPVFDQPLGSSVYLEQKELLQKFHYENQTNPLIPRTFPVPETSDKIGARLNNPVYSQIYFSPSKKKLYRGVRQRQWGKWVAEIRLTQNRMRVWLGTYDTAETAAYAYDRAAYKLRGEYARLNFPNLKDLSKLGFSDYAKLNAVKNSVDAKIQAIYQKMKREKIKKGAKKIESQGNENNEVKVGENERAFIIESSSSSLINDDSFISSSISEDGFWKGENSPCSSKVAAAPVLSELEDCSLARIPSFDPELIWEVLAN

[2] = biological target: T1, OfERF61; test: competition; labeled OC1 probe; signal reduced at 20-fold, not detected at 200-fold excess; LightShift Chemiluminescent EMSA Kit (Thermo Fisher), manufacturer's instructions; buffer, salt, pH and temperature not stated; details: protein: recombinant; tags: pET-30a vector tags (not given); label: none; blunt

| Binder | binding result [1] | binding result [2] |
| --- | --- | --- |
| OC1 probe (OfCCD4 promoter, CAACA element) (dsDNA) DNA 1: AAAGAAAAAAGGACAACAACAGTGGATAATTTGA DNA 2: TCAAATTATCCACTGTTGTTGTCCTTTTTTCTTT | binds | – |
| OC1 unlabeled competitor (dsDNA) DNA 1: AAAGAAAAAAGGACAACAACAGTGGATAATTTGA DNA 2: TCAAATTATCCACTGTTGTTGTCCTTTTTTCTTT | – | binds |
